Assay results from the DeepSol protein solubility set.

Assay: soluble on expression in E. coli; label from the status in PepcDB or PDB records

Soluble on expression in E. coli, soluble:
MRGSHHHHHHGLVPRGSMKITVLGCGALGQLWLTALCKQGHEVQGWLRVPQPYCSVNLVETDGSIFNESLTANDPDFLATSDLLLVTLKAWQVSDAVKSLASTLPVTTPILLIHNGMGTIEELQNIQQPLLMGTTTHAARRDGNVIIHVANGITHIGPARQQDGDYSYLADILQTVLPDVAWHNNIRAELWRKLAVNCVINPLTAIWNCPNGELRHHPQEIMQICEEVAAVIEREGHHTSAEDLRDYVMQVIDATAENISSMLQDIRALRHTEIDYINGFLLRRARAHGIAVPENTRLFEMVKRKESEYERIGTGLPRPW, MRGSHHHHHHGSATSANTDRIATAELGIAENKKDAQIAKAQANENKDGIAKNQADIQLHDKKITNLGILHSMVARAVGNNTQGVATNKADIAKNQADIANNIKNIYELAQQQDQHSSDIKTLAKVSAANTDRIAKNKAEADASFETLTKNQKLCSQA, MRGSHHHHHHGSMTRSALVTGITGQDGAYLAKLLLEKGYRVHGLVARRSSDTRWRLRELGIEGDIQYEDGDMADACSVQRAVIKAQPQEVYNLAAQSFVGASWNQPVTTGVVDGLGVTHLLEAIRQFSPETRFYQASTSEMFGLIQAERQDENTPFYPRSPYGVAKLYGHWITVNYRESFGLHASSGILFNHESPLRGIEFVTRKVTDAVARIKLGKQQELRLGNVDAKRDWGFAGDYVEAMWLMLQQDKADDYVVATGVTTTVRDMCQIAFEHVGLDYRDFLKIDPAFFRPAEVDVLLGNPAKAQRVLGWKPRTSLDELIRMMVEADLRRVSRE, MRGSHHHHHHGSVEVQVLIENVVFARNFVAEHGLSLLLKKGNKEIVVDTGQSENFIKNCGLMGIDVGRIKKVVLTHGHYDHIGGLKGLLERNPEVKIYTHKEILNKKYAMRKGGQFEEIGFDLSFYEKYKNNFVLIDKDAEIEEGFYVITNTDITYDNEFTTKNFFVEKEGKRIPDKFLDEVFVVVKEEDGINVVTGCSHAGILNILETARNRFGVSYIKSLIGGFHLRGMEEEKVKDIARKIEEYGVKKVLTGHCTGIDEYGFLKSVLKDKISYLTTSSSIVV, MRGSHHHHHHTDPALRAIPQISQAPGVVQLVLNFLQELEQQGFTGDTATSYADRLTMSTDNSIYQLLPDAVVFPRSTADVALIARLAAQERYSSLIFTPRGGGTGTNGQALNQGIIVDMSRHMNRIIEINPEEGWVRVEAGVIKDQLNQYLKPFGYFFAPELSTSNRATLGGMINTDASGQGSLVYGKTSDHVLGVRAVLLGGDILDTQPLPVELAETLGKSNTTIGRIYNTVYQRCRQQRQLIIDNFPKLNRFLTGYDLRHVFNDEMTEFDLTRILTGSEGTLAFITEARLDITRLPKVRRLVNVKYDSFDSALRNAPFMVEARALSVETVDSKVLNLAREDIVWHSVSELITDVPDQEMLGLNIVEFAGDDEALIDERVNALCARLDELIASHQAGVIGWQVCRELAGVERIYAMRKKAVGLLGNAKGAAKPIPFAEDTCVPPEHLADYIAEFRALLDSHGLSYGMFGHVDAGVLHVRPALDMCDPQQEILMKQISDDVVALTAKYGGLLWGEHGKGFRAEYSPAFFGEELFAELRKVKAAFDPHNRLNPGKICPPEGLDAPMMKVDAVKRGTFDRQIPIAVRQQWRGAMECNGNGLCFNFDARSPMCPSMKITQNRIHSPKGRATLVREWLRLLADRGVDPLKLEQELPESGVSLRTLIARTRNSWHANKGEYDFSHEVKEAMSGCLACKACSTQCPIKIDVPEFRSRFLQLYHTRYLRPLRDHLVATVESYAPLMARAPKTFNFFINQPLVRKLSEKHIGMVDLPLLSVPSLQQQMVGHRSANMTLEQLESLNAEQKARTVLVVQDPFTSYYDAQVVADFVRLVEKLGFQPVLLPFSPNGKAQHIKGFLNRFAKTAKKTADFLNRMAKLGMPMVGVDPALVLCYRDEYKLALGEERGEFNVLLANEWLASALESQPVATVSGESWYFFGHCTEVTALPGAPAQWAAIFARFGAKLENVSVGCCGMAGTYGHEAKNHENSLGIYELSWHQAMQRLPRNRCLATGYSCRSQVKRVEGTGVRHPVQALLEIIKGLCGR, MRGSHHHHHHTDPINKDIYQALQQLIPNEKIKVDEPLKRYTYTKTGGNADFYITPTKNEEVQAVVKYAYQNEIPVTYLGNGSNIIIREGGIRGIVISLLSLDHIEVSDDAIIAGSGAAIIDVSRVARDYALTGLEFACGIPGSIGGAVYMNAGAYGGEVKDCIDYALCVNEQGSLIKLTTKELELDYRNSIIQKEHLVVLEAAFTLAPGKMTEIQAKMDDLTERRESKQPLEYPSCGSVFQRPPGHFAGKLIQDSNLQGHRIGGVEVSTKHAGFMVNVDNGTATDYENLIHYVQKTVKEKFGIELNREVRIIGEHPKESLQPSLIS, MRGSHHHHHHTDPLPRLPVPPLQQSLDHYLKALQPIVSEEEWAHTKQLVDEFQASGGVGERLQKGLERRARKTENWLSEWWLKTAYLQYRQPVVIYSSPGVMLPKQDFVDLQGQLRFAAKLIEGVLDFKVMIDNETLPVEYLGGKPLCMNQYYQILSSCRVPGPKQDTVSNFSKTKKPPTHITVVHNYQFFELDVYHSDGTPLTADQIFVQLEKIWNSSLQTNKEPVGILTSNHRNSWAKAYNTLIKDKVNRDSVRSIQKSIFTVCLDATMPRVSEDVYRSHVAGQMLHGGGSRLNSGNRWFDKTLQFIVAEDGSCGLVYEHAAAEGPPIVTLLDYVIEYTKKPELVRSPMVPLPMPKKLRFNITPEIKSDIEKAKQNLSIMIQDLDITVMVFHHFGKDFPKSEKLSPDAFIQMALQLAYYRIYGQACATYESASLRMFHLGRTDTIRSASMDSLTFVKAMDDSSVTEHQKVELLRKAVQAHRGYTDRAIRGEAFDRHLLGLKLQAIEDLVSTPDIFMDTSYAIAMHFHLSTSQVPAKTDCVMFFGPVVPDGYGVCYNPMEAHINFSLSAYNSCAETNAARLAHYLEKALLDMRALLQSHPRAKLISEEDLSLISG, MRGVVGVLALQGDFREHKEALKRLGIEAKEVRKKEHLEGLKALIVPGGESTTIGKLAREYGIEDEVRKRVEEGSLALFGTCAGAIWLAKEIVGYPEQPRLGVLEAWVERNAFGRQVESFEEDLEVEGLGSFHGVFIRAPVFRRLGEGVEVLARLGDLPVLVRQGKVLASSFHPELTEDPRLHRYFLELAGV, MRGVVKELNDDGFGVLGNVLVPFSAPGDEVEILKIEKVKKAKIASKWKLIKSSPLRVGARCKVFGRCGGCSLQHLSYDYQLEFKGERIRRLLGVDVEVIPSPRIFGHRNRIDLAVTVEGIGFRERGKWWKIVDIQECPVFGKTSRKAIERLREFIEEERISVWNVKKDEGFLRYMVLREGKFTGEVMVNLVTKEGKLPDPSKYFDFATSIYWSVNRTKSDVSYGEVESVWGREFITEKLDDVIYLIHPNSFFQTNSYQAVNLVKKVSELVEGERVLDMYSGVGTFGIYLAKRGFKVVGFDSNEFAIEMARKNAKINKVDAVFDVATDREVEVNGFDTVIVDPPRVGLHPKLIKKLNREKPEVIVYVSCNPKTFARDIEKLEYKIDEIVALDMFPHTPHLELVAKLIV, MRGYFIVLEGIDGSGKTTQAKLLAEWFEDKGYEVLLTKEPTDSELGKLIRRIILEESVIDGSKISYEAEALLFAADRAEHVKKIILPALSEGKVVICDRYFYSSLAYQWARGLDLNWLIQVNSFAPRPDLAILLDLPVKESLRRIKLRGTLTEFDKIVELQRKVRHNYLKLAEMFPEMRIVNALSSIEDIHSDIVALVKHELLGL, MRIAAAVVSIGLAVIAGFAVPVADAHPSEPGVVSYAVLGKGSVGNIVGAPMGWEAVFTRPFQAFWVELPACNNWVDIGLPEVYDDPDLASFNGATTQTSATDQTHLVKQAVGVFASNDAADRAFHRVVDRTVGCSGQTTAIHLDDGTTQVWSFAGGPSTGTDEAWTKQEAGTDRRCFVQTRLRENVLLQAKVCQSGNAGPAVNVLAGAMQNTLG

Soluble on expression in E. coli, not soluble:
MRFSPIIGPSSYVSSLCHSILRGELFSTCSVGCIYCYARWYRGAHGKEKPLWESLKLIKMLGGIIREGLAITPIRVSTLSDPFQGEGKITLKFLKLALKEKVPVIINTKLIPREKHIKTIERLAEEGLVVVQVSLPTLEETKVLEPFSPSPGQRLELIERLSRAGVPTIVRVQPFVPGWIRDIHTFIEEIASAGARMIILEFLRIEKELLPLFSKLFPGEDIYKREWESYLPGTSTEEAPLLHPPLDYRLSIAREFSIKAEKEGLAFSTCKEGLFEFHTPLNVDCCGMAFFDVEYISRRPTLWDLYLEIVENGKAKGEDLWERCRREELLCRENLTPYPRWFRRGFIAHEKRLESVLRKPHIVERITPSIKYENGYFIKRKERSNSGYNSFF, MRHFDASQPLRVAVLGTGFGSKVHIPALQHHSETTVQAVYHRQPDRAAAIAVQFGIPNAYSDLDQLLADPAIEAVTIASPPFLHYPMAWAALSAGKSVLLEKPTTLNVEEARALWKLASSQGLTVTLDFEYRFVPAWQYVAELLAEGVIGQPWLVKLDWLMSSRADASRPWNWYALRSQGGGALGALGSHSFDYLAWLFGPARRLQARLFTAIQERPDATTGELKPVDSDDTDLIQLELAEGVPCQISLSSVFRQGRGHWLEVYGDRGTLILGSSNQKDYVHGFQVWFASAGQALQELTVPQRLAFRQEFADGRLAPFLRVVDHWLADLRHGQMTAPSLKEGLYSQLLIDLCWQSQRSGEWQTVPELNRFLLEHHHHHH, MRHMMQLKAPFFSDNATDLPFWWEEARPSPVQTDDLPSSTEVAIIGAGFTGLNAALVLARAGKQVSVFDADEPGYGASSRNGGFLGPGWAFFDTGMQYGADTARQIVEESFHSLQHVKDVVAMEKIDCDLKEVGYFKGAMTPRVYDAIGRNMDRIRKIIPCNVYMVPRSEQHKEIGSDLYHGGVAMPGYCGIHPAKYVKGLAEAANRLGVKIYSNARVSDLEGKNGGFSFKVGSRTIAARQILLAANGYSGSLLPHLKRRIIPVGSGLIATEQLPVEVMDRLMPKRQMLAGSQRVVTYYRPSPDNTRIVFGGRVLNMSGAHESAVANAKYIRSLLLAVFPELASAKITNYWHGQLGFTFDHLPHVQTIDGMYFAGGYNGTGVARASWLGSRVAYEMLGSDLGKTVYRNLPFDGRRFYNGKPYFLPLAVWYYGMLDKWDQRLEHHHHHH, MRHMSGDHAALVLGAGAGRRLGRSKQLLMRDGEPLLRRAARIALLTAPRRCVVVLGADADTLSEVLQDLDIEILRHPDWSEGMGSSLAALRRHVQGDPALRRSLILGCDQPALDAPHLRSLLEEADRAVSGCATSGYSGVRGIPAVVTHTAWADVPLQADSGLRGLFASLDMQSLGCVSAPALALDIDTPADLATAQQRGWVDAELEHHHHHH, MRHSSYEHVPNRIIPPHIPIDARRGDFDRRPGPPVPSMRAAILGGSDPYHGFQPVVDTYNGPVVDNSRRRGFDKGPFGEDLTTMGRNEGRQPLLRHPRLDFEHIGGEMEIARSRSASPEIQVISARSVRDDRRRDKPRQRRSSRSRSRDRGDKDHRKPAASRRSDRESTYRERLGSSSGPAAAPDIIRDGMVWANDNYFEFLSFYIEVLNEKLRSSVDRDVKGIREIREVITPATEPEKDRIVLPPNFNRSDRERMLHCDTTITGLPTAIFFGSGYGPREHYAKYSAAKDFFDKCLKIRVMDDELHAAIGEWPRLDRTFKTQFKVNISKSVNAVILLIKRMANEQLPPGFMTMRTLPIDIIDRFKFLLRMVVADVYYQGTESSMAVPKALETGYNTQPYPPNQYPLDTDIRRPSERPSNGPSAEEAARVRDQEIKEQVARELEKRQKVMEQEIRAKILEEERARIQGEAEREKKLELMKAEEQKYQKEKEMKEFEEQQKKAMMTKQVEDDFNVMVEQLEKMFVEVRSKGLNHILDMIYGSATFKTIQLYSSTLTSLSFEQKQKLVQDLRSLLDSVTMGMKVAAVAQMSQAQNPIQGGLFQHQQQQQQPMMSGGGGFVSGVQVVPMQVPMQSYQMPQMQIHHQAFPQPQQLNTTPLLSSSVPMRRDEVRRVTVGDMRLRSLSRSEQRDLRVGNKIIAQDSKTGTWTLATVVKIREDRVTVSVANGTWKKDIDDLYKEDDGSLVY
